Results published in the DeepSol protein solubility set.

Experiment: soluble on expression in E. coli; label from the status in PepcDB or PDB records

| Sequence | soluble on expression in E. coli |
| --- | --- |
| MGSDKIHHHHHHMRILYINHYAGSPRHGMEFRPYYLAREWVKAGHEVNMLAADVSHLRQTHPQVDGKYRDEDIDGIRYTWCKTRPYSGNGVGRVLNIFSFLAKVMGLSRRYLKEWQPDVVIASSTYPLDTVPAAWIAGKTGARLVYEVHDLWPLTPVEVGGMSPKHPFIRLLQWAEDFGYKRADTVVSMLPCARDYMMAHGMAAEKYAVIPNGVDVSEWQGETLPLSAEHRMRLAELKSHGRFIVGYAGGHGLANALDYLLEAAALMRDAPVTFVLVGDGPDKQALVSRAAELKLDNVMFLPSIAKRSVPAFLAECDALYIGWRKLPIYRFGINPNKLFDYMMAGKPVIHSVEAGNDMVKDAGAGLSIGVEDPAVIADAVKRMAVLPLAERETMGAAGKAYVLANHDYAVLARRFLAAVKL | not soluble |
| MGSDKIHHHHHHMRIPPLKAIIAFESVARTKSVNRAAEELGLTASAVSHQLSNLESQIGQPLFQRSGRGLVLTPTGERYLTDVTGSLADLSRATERASSRTEVDILRVHSSPSFGLMWLLPRLSSFQEANGDIELNLACSYENVSFSNGFYDIDVRHGYGNWDNLEVRTVRGEFIAPLASPQYLERHPVKAPEDLLAHRLIYSETPLVQWKQWFGRAGVSLAAQKTFDFSFDRSYMSLETAALGLGIALESLMLASVKIREGLLVPVFDATHAVEVGAHHLVYPRQNAELPRVKRFLAWIEREVAGHGRAS | not soluble |
| MGSDKIHHHHHHMRLDEYISRDIAWCPGCGNFGIRTALMKALEELNVDPRQVVIVSGIGQAAKMPQYVGVNMFNGLHGRALPVATAIKTTNPNLLVIAESGDGCMYGEGGNHFIHTIRRNPDIVNIVHDNQVYGLTKGQASPTSLKGFKTPVQVDGVILEPFNPLAVAIALDASFVARTFIGDIEFTKDILKEAMKHKGYALVDILQPCVTFNKLNTYEWYRENTYYLKDHDPTDRELAFKRAIETEKLPLGIFYVNKNKETFEELARKGDRTPLYEYEVNFEKLKELIESKKS | not soluble |
| MGSDKIHHHHHHMRLDTLSKTGGGVQEALSGSVRLYSEVLNREVEVPETPRRIVSLSPAITETLYMLGLEDRIAGVSVYDHKPPKAREKPKVGSYYKVNMKLLEQLNPDLILVTTGAQRRILEDLSRRYPVYPIPLPVSVSGIIDQAVQVGIVTGALEEASRLETELLDKASKLRGAGRGLRIYYEVYLGGPVTAGAHTYISDAFRIAGVETPFMSERTTWIYQPPPERINRFKPQFILYEYSAYAPTTAEKVRGELEARGVDVGSAELVLLEPDTLAHYGPSFIDTMLDLLKTLRDKAGLG | not soluble |
| MGSDKIHHHHHHMRLFRKEPKAEQLKVIIIGAGEVGYHIAHRLTRENKQVVVVDQQPEALRRVAEALDVQTIRGSGSSPVVLHDAGAEDADIILAVTDSDEINIIACLFANIISPASTKLARIRNEEYTLYRDALAQDILNISMIINPEVEVVKNIDRLLSLPGAVDYSEFADGRIRMVGMRICSGPLVGVRLMNFRTVISDGDVIIAAIVRNDELIIPTGMDEIRADDVVYFVCTESSLESVRNVVAALEDPIRSALIVGGGNIGMRLATLFERKGYHTKLVDRDEERCAVLAEKLNSTIVLHGDGTDQDLLREENAGTMDAVVCLTSDEETNILCSLLAKNMGVRKTVARINKVAYQPLVRAIGIEHSVSPRLSAVNSILHYIRKGKVLSSVAIRGEEAEVMEALAEAQSDIVGRPIHKLSFPKGALVLALVRGTEVVIPSGDTVIEPQDRILILSTRQAVSDVEQALMVKLKAY | not soluble |
| MGSDKIHHHHHHMRLFSKLFNIRDNTVVERPRSLTGEGIAAKTQTRVAEKISSTPNDTDTVAAPTVDVAALFYSLLFATSHKDTGGIANNLEKRLIGNVESALADPKVIAEKVFKLPHDLIELDKQLANPEVDTEEVIALIKRDPVLSAEVIQLCNAPAFHRGAKDITSLQQAVVILGREQLRRFVSAVKVREVVEIKPIYYRRFGAEVWRHSLQVAYLAAELATEDQDTAFMLGLIHDVGKIAIFQMLLEAFAKAEPGEQPRSWLFRQVMTSKSLILSAVLARSWLLPPLFSRSLAALANPDNMPTEPLPKAIWTANHISECSMLWQAARLKEPQLNELLARIGMDRKTFDPLHEKLILFTR | not soluble |
| MGSDKIHHHHHHMRLRELELFLDLLATKSLTQSAERLGMSQPNASHLLSKLEEKGGSKLFDRSGKRLLPLSSALFLEPRAKEIVRLWREAQEELLDQSSLCGELRIAATHTIGEYLLPEILFEFRQTHPKVHLQARIHNTAECLEALLGGEVEQAFIEGETEDNQGVMKRFLRRDELAVVTSDEGLAARARYIDELFDRPWILREKGSGMRDAFLREVVDVKESFPLFLELDRSEAIKRLIQSHGALGCLSLLSVQREIKEGRLFRVEIIGREFWRHFYEVRREGSLGRLAKVFGEFVSVRLSESD | not soluble |
| MGSDKIHHHHHHMRLRRLPVYVDAYKEKPNAEIFIYYSSRGTGKTYDIATVNLERKFSADGGDTLAIRKKKNKTTQSIHKEILELLSIYNLRKFFNISKAKIESKSLIFGKKRAFVFEGGHDTRDLKSYAHFKDLWLEEANQFSADDIEMLVPTMREQGGRIYMSSNPVPKSHWLYKRYLSNQDNPAVCIIKSTYRDNPFLNGGDVQAWLEKQRLAYHGNDIGFRIEVLGEEFDFGTARLIKKFNVCGPEILSRANGSYYTGIHVKGNRICFLEILVGRISYLPVVIITNACSKVLLSKTDYQSEINKFKGVFVLPTAREELKYVFSRFGRGTLLAKKRNLYSLSDYLIPSNLNVVNKPETTDVISEFNETEYYYDESSAEDSEVTNFVMQKDLVYIPAFLNAISVFS | not soluble |
| MGSDKIHHHHHHMRLTSREKEIFEVLKKEPLISQEELARRFNITRSSIAVHISNLMKKGVILGKGYVFNEQVSVVVIGESYYYIKTSGPDNDCSINMGLGGFAVDTGRIFANFGLNVKLITIVGNDEEGTNIFNELQGKGVDIVNIFRHAKKRSCRKVFLDDKRILEENFSLQDYEKAIDAREWVVFNCEWLVVDTRFQELLCHKAIGKDEEKLPFFCTCRYLYSIEEIPSFLSRYDLLVLGVADSNIMDHYLSQALALSSNGVQSVILSDGNTRLFYFQKGNAHEFPLLPNQCFDSQEGLPALLAGIVYGLSSGYSLRQAVRIAVGTAASND | not soluble |
| MGSDKIHHHHHHMRLVQYRMPDGSRRVGRVSDDDNHLHPLDKTGSVLELAEAAIAEDMSIASLVEKRTAAATIDYDALLRNGRVLAPVDHPEPARFLVTGTGLTHTGSAAARNQMHVLTHGDGAEESDSLKIFRMGLEGGKPGAGKIGIQPEWFFKGVGTCVVPPGAPLPMPAFAKAGAEEAEIVGLYLNGPDGHPYRIGYALGNEYSDHVTEGENYLYLAHSKLRSCSIGPELLIGDLPEEVRGHSRILRDGTVIWEQEFLSGEAHMSHSIANLEHFHFRYPMHRRAGDLHAYFFGAAVMSYASGIKTASGDEYEIQAQAFGKPLRNRMVSVPDEGLVTVTPL | not soluble |
| MGSDKIHHHHHHMRLYTRTGDKGKTSVIGGRLAKDDTRVVAYGTTDELNSFVGSAITQLDENTFADIRGELFKIQHELFDCGGDLAMLKVKEDRPYKAKQEIVDFLEQRIDAYIKEAPELERFILPGGSEAAASLHVCRTIARRAERYVVRLQQEGEINPIVLKYLNRLSDYFFAVARVVNSRLQVPDVEYERSAIVFREGKRKEDKK | soluble |
| MGSDKIHHHHHHMRNILEIVKFWFYDYDVTATEIKANVIKIHCNNKSYILKEKGSIKQLLVEINVLEQLEEKGVKAQKLVKTSNSEKYVVYKERYYCLYEYVVGSVLEIKDPENLKNLGSLIGEEIAKLHQALNSVNSNNELVKRELYKLVYEWALPNLEKNEHVDQDVVRTMNQIHSDFKKTITSLRKQIIHRDMHLSNVIFKDNEFQGFIDFELLERNVRVFDLCYCCTSILSELHSDEELRGKWQHIISKIFEGYNKQSILTREELQAIWYVMLSIQVIFITYFVQLPDLLKLNEEMFFWIFANKETIEELIERSVQI | not soluble |
| MGSDKIHHHHHHMRNYQIPNLFNLGDLETKKVLKAANQAHQALGELKGVVQTVPNQNILLGTLPLQEAKESSEIENIITTQDDLYQSNVATQQFTTIAAKEVHHYAQAVSFGFSEVRKTELITLNLIKQIQAKLEGNNAGFRKQIGTGLVNQRTGQVVYMPPQQPEMIEHYMSVLERFINDSEQIDYDPLVKMAIVHHQFESIHPFYDGNGRTGRIINILYLIQQNLLDTPILYLSRYINRNKDQYYYLLQFVRDHNDWEEWLIFMLNGIAETAKQTVDLINQIKKLMQEHKLLIRNQLPNIYSHELINNLYKYPYTKIDFIAEDCQVHRNTAGKRLEQLVDLGILKKVKIGKENFYINMELYYLLTK | not soluble |
| MGSDKIHHHHHHMRPDMFIGSYERSGGHGLYPAWLDSLGAISLGPPDTRIGNASFGLLDHRCGTAWFVEEQEPGAVSAWQWDDQVWTPLGRIGTGGASPCHLVRSPDGTLLAVANNDGGVAALVELDPETGALGKLAGVLRNEGGARSHAGCVRFAGDRIFIADRGLDRVLSCEYGAAGFGEVRTAFAAPRGSGPRQLLLRDDLALLACELTARLMLLRATGEGFELLDDIATDAAATPGNLAGHLAFQGDRIFVSNRGADTVASFRIDGERLRREDCWSSHGRSPRHFAMCGSYLVVTNEQDGIVCVLDIANGGRIAGTAIVPGAAFVLAMPL | not soluble |
| MGSDKIHHHHHHMRQLSINRLKEGDILGRTIYANDGRVLLGKGMALTKSYIDRLKTLGINILYIDDEVSKDIIVEDIISEEHRREAMASLDNAVQAVKVGKDFDGFNVKRNIDNIIQDILFQKDIFIGLTDMRTYDNQIFAHSVNVCVLSIVLGKALGLDRENLEGLAIGALFHDIGTVKLPKKLLSKREPFTPKEAALYQTHTNHGFDILRTKRELNLLSAHIAFQHHERLNGNGYPRKLEGDAIHQWAQIVGIANFYDNLVNDGPGHTRIPPYEACEILMGSAEKFFPKDLVITFLKHIAAYPTGCTVKLSTGETGIVVEQNKSLPMRPIIRVLVADQTLSRVQAKEYNLVEERTLFIESILE | not soluble |
| MGSDKIHHHHHHMRRKIPSTTALVSFEAAARHESFTKAAHELSLTQGAVCRQIGGLEEFLGIELFRRSRRGVKLTEAGLSYSRRVAQQLDAVERDTLSVMGEQGAHAIELAVVPTFGTQWLLPRLKDFQHKHPDVTVHLTNRTRPFLFADTDFDAAIYFGDADWSGTQSHRLMGENSLPVCSPSFLGGRGSLKASELAELPLLQQTTRPYAWRQWFNAQNLNVARDMTGPRYELFSMLAQAAMHDMGVALIPPFLILRELHEKRLVIASISALPSNKAYHLMIPERKVESASLTAFRDWLVNQAHDYSLPQDKEQALV | not soluble |
| MGSDKIHHHHHHMRRNQVAIVGAAETTKLGVIPDMSQIQLHADAALNAIADAGLKLSDIDGIATAVETPQQIAHYLGITPTWVDGTSVGGCSFMLHVRHAAAAIEAGLCKTVLITHAESGKSMIGKLPRSIPADSLQGQFEAPYGIYGPPSQFPIPVLRFMKTHGITHEQIASVAVVQREWAAKNPRAMMKDPITVADVLNSRMIAYPFRLLQCCLVTDGGGALIMTSADRAKDFPHKPVYVLGTGESVETPMVSQMETFNSSRAFKVAGPTAFREAGISHSDVDHLMIYDAFAHLPLFGLGDLGFMPYEETGKFIADGNTRPGGKLPLNTNGGGLSYMHSGMYGMYALQESVRQMRGIAPAQVPNAKISVCHGVGGMFAASGTIIFTNEK | not soluble |
